Measurements from US20030139374A1 (University of Texas, published 2003).

Columns and labels:
[1] = system: tissue factor on the surface of HUVEC cells; assay: FACS analysis of tissue factor expression on HUVEC; type: cell-based, human; conditions: TNFα 500 U/ml, LPS 10 μg/ml, VEGF 1 nM; 6 h
Description: To analyze tissue factor expression on the surface of endothelial cells, HUVEC cells were incubated with TNFα (500 U/ml), LPS (10 μg/ml) or vascular endothelial growth factor (VEGF, 1 nM) alone or in combination for 6 h at 37°. Cells were then detached and stained for surface expression of human tissue factor with a sheep-anti-human tissue factor antibody (Haemochrom, Essen, Germany) and an appropriate FITC-conjugated secondary antibody. Fluorescent cells were detected on a flow cytometer (Becton Dickinson, San Jose, Calif.).

[2] = system: Mouse bEnd.3 endothelial cells; assay: Phosphatidylserine induction by hydrogen peroxide; type: cell-based
Description: Mouse bEnd.3 endothelial cells were seeded at an initial density of 50,000 cells/well. Twenty-fours later cells were incubated with increasing concentrations of H2O2 (from 10 μM to 500 μM) for 1 hour at 37° C. or left untreated. At the end of the incubation, cells were washed 3 times with PBS containing 0.2% gelatin and fixed with 0.25% glutaraldehyde. Identical wells were either stained with anti-PS IgM or trypsinized and evaluated for viability by the Trypan Blue exclusion test. For the anti-PS staining, after blocking with 2% gelatin for 10 min., cells were incubated with 2 μg/ml of anti-PS antibody, followed by detection with anti-mouse IgM-HRP conjugate.

[3] = system: Mouse endothelial cells; assay: TNFα, cell based two stage coagulation assay
Description: Mouse endothelial cells were seeded in 48 well tissue culture plates and allowed to adhere overnight. Cells were stimulated with TNFα at the following concentrations: 500 U/ml 100 U/ml; 20 U/ml; 4 U/ml; 0.8 U/ml 0.16 U/ml; and with medium only.
Endothelial cells were also tested for coagulant activity in a cell based two stage coagulation assay. After incubation with TNFα, cells were washed and incubated with coagulation factor mix (0.5 μg/ml factor VIIa in a mix containing 2.8 μg/ml factor IX, 3.4 μg/ml factor X, 50 μM phospholipids in calcium buffer). The supernatant of wells was transferred into a 96 well ELISA plate. Substrate S2765 was added and Factor Xa generation measured.

[4] = system: bEnd 3 cells; assay: Cell bound coagulation assay on stimulated bEnd 3 endothelial cells (factor Xa generation); type: cell-based, murine
[5] = system: A20 lymphoma cells; assay: In vitro coagulation assay on A20 cells with B21-2/10H10 capture antibody; type: cell-based, mouse; conditions: for concentration at which plasma coagulated in 50 seconds: bound via B21-2/10H10 to A20 cells; for coagulation times versus tTF219 and Factor VIIa at the same concentrations: Factor VIIa at 1 nM or greater
[6] = system: factor X to Xa conversion; assay: Factor Xa production assay on A20 cells; type: cell-based; conditions: Factors II, VII and IX present
[7] = system: HT29 (human colorectal carcinoma) xenograft; assay: HT29 xenograft necrosis after tTF constructs with Factor VIIa; set-up: species or system BALB/c nu/nu mice; conditions: mouse, in vivo, iv

Question: With VEGF as the molecule, how does the “tissue factor expression on the surface of endothelial cells” value [1] read?
Answer: upregulated

Question: Which results are given for `OO` [H2O2]?
Answer: cells with PS detected at the cell surface ([2]; concentrations as low as 20 μM): about 50%; cell viability ([2]; low levels of H2O2 (lower than 100 μM), identical to untreated): 95%

Question: What does the source list for TNFα?
Answer: fold lower dose for coagulant effect than for VCAM-1 upregulation [3]: 125 fold; TNFα at which an increase in comparison to the negative control could be detected ([3]; coagulation assay): 0.16 U/ml; tissue factor expression on the surface of endothelial cells [1]: upregulated; Factor Xa generation ([4]; stimulation with TNFα (500 U/ml), then incubation with labelled agent (label TNFα = medium only), 0.5 μg/ml factor VIIa): 0.35 nkatS2222; Factor Xa generation due to Factor VIIa production ([4]; stimulation with TNFα (label TNFα = medium only), 2 μg/ml factor VII and 0.01 μg/ml factor VIIa, factor VII-only values subtracted): 1.23 nkatS2222

B1: H6-tTF220-cys-C′: tTF with Ile-Cys after amino acid 219, (His)6 tag (protein)
chain: HHHHHHAMALVPRGSGTTNTVAAYNLTWKSTNFKTILEWEPKPVNQVYTVQISTKSGDWKSKCFYTTDTECDLTDEIVKDVKQTYLARVFSYPAGNVESTGSAGEPLYENSPEFTPYLETNLGQPTIQSFEQVGTKVNVTVEDERTLVRRNNTFLSLRDVFGKDLIYTLYYWKSSSSGKKTAKTNTNEFLIDVDKGENYCFSVQAVIPSRTVNRKSTDSPVECMGQEKGEFRE
Question: Which “concentration at which plasma coagulated in 50 seconds” value (“concentration … in 50 seconds” below) [5] does the source give for B1 here?
Answer: 0.5 nM

B2: H6-tTF221-cys-C′: tTF with Ile-Phe-Cys after amino acid 219, (His)6 tag (protein)
chain: HHHHHHAMALVPRGSGTTNTVAAYNLTWKSTNFKTILEWEPKPVNQVYTVQISTKSGDWKSKCFYTTDTECDLTDEIVKDVKQTYLARVFSYPAGNVESTGSAGEPLYENSPEFTPYLETNLGQPTIQSFEQVGTKVNVTVEDERTLVRRNNTFLSLRDVFGKDLIYTLYYWKSSSSGKKTAKTNTNEFLIDVDKGENYCFSVQAVIPSRTVNRKSTDSPVECMGQEKGEFRE
Question: For B2, which “concentration … in 50 seconds” value [5] is on record?
Answer: 0.5 nM

Question: What about the “concentration … in 50 seconds” value ([5]; listed as H6-tTF221-cys-C′ monomer) of the same molecule?
Answer: 1 nM

B3: H6-tTF221-cys-C′ dimer: chemically conjugated disulfide dimer of H6-tTF221-cys-C′ (protein)
chain: HHHHHHAMALVPRGSGTTNTVAAYNLTWKSTNFKTILEWEPKPVNQVYTVQISTKSGDWKSKCFYTTDTECDLTDEIVKDVKQTYLARVFSYPAGNVESTGSAGEPLYENSPEFTPYLETNLGQPTIQSFEQVGTKVNVTVEDERTLVRRNNTFLSLRDVFGKDLIYTLYYWKSSSSGKKTAKTNTNEFLIDVDKGENYCFSVQAVIPSRTVNRKSTDSPVECMGQEKGEFRE
Question: For B3, which “fold less active at inducing coagulation of plasma than tTF219 / unconjugated or monomeric form” value [5] is on record?
Answer: 4 fold

B4: H6-tTF219-cys-C′: tTF219 with (His)6 tag and a Cys after amino acid 219 (protein)
chain: HHHHHHAMALVPRGSGTTNTVAAYNLTWKSTNFKTILEWEPKPVNQVYTVQISTKSGDWKSKCFYTTDTECDLTDEIVKVKQTYLARVFSYPAGNVESTGSAGEPLYENSPEFTPYLETNLGQPTIQSFEQVGTKVNVTVEDRTLVRRNNTFLSLRDVFGKDLIYTLYYWKSSSSGKKTAKTNTNEFLIDVDKGENYCFSVQAVIPSRTVNRKSTDSPVECMGQEKGEFREC
Question: Which “concentration … in 50 seconds” value [5] does the source give for B4 here?
Answer: 3 nM

B5: IgG-H6-N′-cys-tTF219: one molecule of IgG linked via SMPT to one or two molecules of H6-N′-cys-tTF219 (conjugate)
chain: HHHHHHAMALVPRGSCGTTNTVAAYNLTWKSTNFKTILEWEPKPVNQVYTVQISTKSGDWKSKCFYTTDTECDLTDEIVKDVKQTYLARVFSYPAGNVESTGSAGEPLYENSPEFTPYLETNLGQPTIQSFEQVGTKVNVTVEDERTLVRRNNTFLSLRDVFGKDLIYTLYYWKSSSSGKKTAKTNTNEFLIDVDKGENYCFSVQAVIPSRTVNRKSTDSPVECMGQEKGEFRE
modifications: left off: large carriers
Question: For B5, which “activity at inducing Xa formation relative to H6-N′-cys-tTF219 (fold less active)” value [6] is on record?
Answer: 2 fold

Question: What about the “fold less active at inducing coagulation of plasma than tTF219 / unconjugated or monomeric form” value [5] of the same molecule?
Answer: 5 fold

Question: What about the “concentration … in 50 seconds” value [5] of the same molecule?
Answer: 5 nM

B6: Fab′-H6-N′-cys-tTF219: Fab′ fragment disulfide-linked to H6-N′-cys-tTF219 (conjugate)
chain: HHHHHHAMALVPRGSCGTTNTVAAYNLTWKSTNFKTILEWEPKPVNQVYTVQISTKSGDWKSKCFYTTDTECDLTDEIVKDVKQTYLARVFSYPAGNVESTGSAGEPLYENSPEFTPYLETNLGQPTIQSFEQVGTKVNVTVEDERTLVRRNNTFLSLRDVFGKDLIYTLYYWKSSSSGKKTAKTNTNEFLIDVDKGENYCFSVQAVIPSRTVNRKSTDSPVECMGQEKGEFRE
modifications: left off: another chain or arm of the molecule; large carriers
Question: Which “activity at inducing Xa formation relative to H6-N′-cys-tTF219 (fold less active)” value [6] does the source give for B6 here?
Answer: as active as

B7: tTF219 (G164A): tTF219 with amino acid 164 (Gly) replaced by Ala (protein)
chain: GSGTTNTVAAYNLTWKSTNFKTILEWEPKPVNQVYTVQISTKSGDWKSKCFYTTDTECDLTDEIVKDVKQTYLARVFSYPAGNVESTGSAGEPLYENSPEFTPYLETNLGQPTIQSFEQVGTKVNVTVEDERTLVRRNNTFLSLRDVFGKDLIYTLYYWKSSSSAKKTAKTNTNEFLIDVDKGENYCFSVQAVIPSRTVNRKSTDSPVECMGQEKGEFRE
Question: How did the “coagulation times versus tTF219 and Factor VIIa at the same concentrations” value [5] turn out when B7 was run?
Answer: only marginally slower coagulation times

Question: And the “necrosis, average area as percentage of total tumor area” value [7]?
Answer: some necrosis

B8: tTF219 (W158R) (protein)
chain: GSGTTNTVAAYNLTWKSTNFKTILEWEPKPVNQVYTVQISTKSGDWKSKCFYTTDTECDLTDEIVKDVKQTYLARVFSYPAGNVESTGSAGEPLYENSPEFTPYLETNLGQPTIQSFEQVGTKVNVTVEDERTLVRRNNTFLSLRDVFGKDLIYTLYYRKSSSSGKKTAKTNTNEFLIDVDKGENYCFSVQAVIPSRTVNRKSTDSPVECMGQEKGEFRE
Question: Which “coagulation times versus tTF219 and Factor VIIa at the same concentrations” value [5] does the source give for B8 here?
Answer: only marginally slower coagulation times

B9: Factor VIIa: recombinant human Factor VIIa (protein)
chain: ANAFLEELRPGSLERECKEEQCSFEEAREIFKDAERTKLFWISYSDGDQCASSPCQNGGSCKDQLQSYICFCLPAFEGRNCETHKDDQLICVNENGGCEQYCSDHTGTKRSCRCHEGYSLLADGVSCTPTVEYPCGKIPILEKRNASKPQGRIVGGKVCPKGECPWQVLLLVNGAQLCGGTLINTIWVVSAAHCFDKIKNWRNLIAVLGEHDLSEHDGDEQSRRVAQVIIPSTYVPGTTNHDIALLRLHQPVVLTDHVVPLCLPERTFSERTLAFVRFSLVSGWGQLLDRGATALELMVLNVPRLMTQDCLQQSRKVGDSPNITEYMFCAGYSDGSKDSCKGDSGGPHATHYRGTWYLTGIVSWGQGCATVGHFGVYTRVSQYIEWLQKLMRSEPRPGVLLRAPFP
Question: How did the “necrosis, average area as percentage of total tumor area” value [7] turn out when B9 was run?
Answer: some necrosis
